{
  "source": "patent US20140314667A1",
  "about": "“METHODS OF TREATING EPIDERMAL GROWTH FACTOR DELETION MUTANT VIII RELATED DISORDERS” (AMGEN INC., priority 2011, published 2014)",
  "molecules": {"B1": {"name": "170: XenoMax derived anti-EGFRvIII antibody, SEQ ID NO: 4/20 (antibody, listed as Homo sapiens, V domains shown)", "VH": "QVQLQQSGPGLVKPSQTLSLTCAISGDSVSSNNAAWNWIRQSPARGLEWLGRTYYRSKWYNDYVVSVKSRITINPDTSKNQFSLQLNSVTPEDTAVYYCVRATAFDYWGQGTLVTVSS", "VL": "AIVLTQTPLSSPVTLGQPASISCRSSQSLVHRDGNTYLSWLQQRPGQPPRLLIYKISNRFSGVPDRFSGSGAGTDFTLKISRVEPDDVGVYYCMHTTQLPWTFGQGTKVEIK"}, "B2": {"name": "150: XenoMax derived anti-EGFRvIII antibody, SEQ ID NO: 5/21 (antibody, listed as Homo sapiens, V domains shown)", "VH": "QVQLQQSGPGLVKPSQTLSLTCAISGDSVSSYSSAWNWIRQSPSRGLEWLGRAYHRSRWYYEYAVSVKSRINITPDTSKNQFSLQLNSVTPEDTAVYYCARGSRFDYWGQGTLVTVSS", "VL": "B1 VL with A1D, L4M, P85A, D86E, V90I, Y92F, L99F, K108R"}, "B3": {"name": "211: XenoMax derived anti-EGFRvIII antibody, SEQ ID NO: 12/28 (antibody, listed as Homo sapiens, V domains shown)", "VH": "QVQLVESGGGVVQPGRSLRLSCVASGFTLSSYGMHWVRQAPGKGLEWVAVTSYDGSKKDYADSAKGRFTISRDNSKNTLYLQMNSLRAEDTAVYYCVSEGYCSSSSCYKYYYYGMDVWGQGTTVTVSS", "VL": "DIVMTQSPLSLPVTPGEPASISCRSSQSLLYRNGNNYLDWYLQRPGQSPQLLIYLGSNRASGVPDRFSGSGSGTDFTLKISRVEAEDVGVYYCMQALQTPRTFGQGTKVEIK"}},
  "key": {"[1]": {"molecular_target": "T1, EGFRvIII receptor on NR6 M cells (Homo sapiens, UniProt P00533, DELINS30-297G)", "T1 construct": "NR6 M cells stably expressing full length EGFRvIII; expressed in transfected cells; host or cells: NR6 cells (NR6 M)", "assay": "Internalization assay (FMAT, glutathione) of B cell culture supernatants", "format": "cell-based", "description": "The top 60 native binding B cell culture supernatants were further assayed for their ability to internalize the receptor. NR6 M cells were seeded at 8000 cells/well into 96 well FMAT plates and incubated overnight. Media was removed and 10-15 μl B-Cell culture supernatant in a total volume of 30 μl media, in duplicate was added. Next, 15 μl of secondary antibody (SS Alexa 647 anti-human IgG Fab at 1.5 μg/ml final concentration) was added and the mixture was incubated on ice for 1 hr. An irrelevant B-Cell Culture supernatant was used to see the effect of the culture media. Human anti-EGFRvIII mAb 13.2.1 was used as a positive control starting at 1 μg/ml (final concentration) and negative control was PK 16.3.1 (human anti-KLH IgG2 antibody) at the same concentration. After incubation, the cells were washed with cold PBS, 50 μl media was added to all of the wells, one of the duplicates were incubated at 37° C. for 30 mins while the other duplicate remained on ice. After the incubations media was removed, 100 ul of cold 50 mM glutathione was added to the set incubated at 37° C. and 100 μl of cold media added to the other set, both sets were then left on ice for 1 hr. The cells were then washed with 100 μl cold PBS and then fixed with 1% paraformaldehyde and read in FMAT. The results were expressed as % internalized, calculated as total fluorescence in the presence of glutathione/total fluorescence in the absence of glutathione×100."}, "[2]": {"molecular_target": "T2, EGFRvIII receptor in NR6 M cells (Homo sapiens, UniProt P00533, DELINS30-297G)", "T2 construct": "NR6 M cells stably expressing full length EGFRvIII; expressed in transfected cells; host or cells: NR6 cells (NR6 M)", "assay": "Internalization of EGFRvIII receptor by recombinant mAbs (FACS)", "format": "cell-based", "details": "0.25 μg/ml antibody, 1 hr", "description": "XenoMax derived IgG1 recombinant antibodies were expressed, purified and quantitated as described previously. Antibodies were further assayed for their ability to internalize the EGFRvIII receptor in NR6 M cells. […] The cells were washed with cold 10% FCS in PBS and secondary antibody (SS Alexa antihuman IgG Fab) at 3 μg/ml Fab was added and incubated for 7 mins on ice. The cells were washed with cold 10% FCS in PBS once and then resuspended in cold media. Next, two sets of the triplicate were incubated at 37° C. and the remaining set was incubated at 4° C. for 1 hr. After that the cells incubated at 4° C. and one set of the cells incubated at 37° C. were treated with glutathione (as previously mentioned) for 1 hr on ice. Then the cells were washed and resuspended in 100 μl of cold 1% FCS in PBS and analyzed by FACS. The % internalization was calculated from the geometric mean obtained from the FACS analysis [(mean at 37° C. with glutathione−mean at 4° C. with glutathione)/(mean at 37° C. without glutathione−mean at 4 C with glutathione)]."}},
  "note": "Positions count from the first letter of the chain named.",
  "data": [
    {"molecule": "B1", "values": [
      {"measurement": "% internalized, (glut+/glut−) × 100", "setting": "[1]; 37° C. for 30 mins", "result": 52.8, "unit": "%"},
      {"measurement": "With glutathione FL1xcount", "setting": "[1]; 37° C. for 30 mins, 50 mM glutathione", "result": 1236},
      {"measurement": "No glutathione FL1xcount", "setting": "[1]; kept on ice, no glutathione", "result": 2342},
      {"measurement": "FACS Geometric mean With glutathione 4° C.", "setting": "[2]", "result": 4.67},
      {"measurement": "FACS Geometric mean With glutathione 37° C.", "setting": "[2]", "result": 7.75}
    ]},
    {"molecule": "B2", "values": [
      {"measurement": "FACS Geometric mean With glutathione 4° C.", "setting": "[2]", "result": 4.66},
      {"measurement": "FACS Geometric mean With glutathione 37° C.", "setting": "[2]", "result": 7.78}
    ]},
    {"molecule": "B3", "values": [
      {"measurement": "FACS Geometric mean With glutathione 4° C.", "setting": "[2]", "result": 4.78},
      {"measurement": "FACS Geometric mean With glutathione 37° C.", "setting": "[2]", "result": 8.23}
    ]}
  ]
}
